According to US20140341881:

How the values were obtained:
[1] = tested on: CFP-RGKTN-YFP-6xHis substrate (peptide D9)
[2] = tested on: CFP-LQRAI-YFP-6xHis substrate (peptide E8)
[3] = tested on: CFP-RQTND-YFP-6xHis substrate (peptide C11)
[4] = tested on: CFP-NQRSS-YFP-6xHis substrate (peptide E5)
[5] = tested on: CFP-LSRDN-YFP-6xHis substrate (peptide E7)
[6] = tested on: CFP-NNKLR-YFP-6xHis substrate (peptide E9)
[7] = tested on: CFP-QRLRD-YFP-6xHis substrate (peptide F11)
[8] = tested on: CFP-VGSLR-YFP-6xHis substrate (peptide G1)
[9] = tested on: CFP-LSGGR-YFP-6xHis substrate (peptide E2)
[10] = tested on: CFP-YQSLN-YFP-6xHis substrate (peptide F10)
[11] = tested on: T1, CFP-PDRHM-YFP-6xHis substrate (peptide F3)
T1 sequence: GALGGPDRHMGST

[12] = tested on: T2, CFP-AYGYK-YFP-6xHis substrate (peptide E1)
T2 sequence: GALGGAYGYKGST

Chain of human plasma kallikrein (PK) (chain, as listed by the source): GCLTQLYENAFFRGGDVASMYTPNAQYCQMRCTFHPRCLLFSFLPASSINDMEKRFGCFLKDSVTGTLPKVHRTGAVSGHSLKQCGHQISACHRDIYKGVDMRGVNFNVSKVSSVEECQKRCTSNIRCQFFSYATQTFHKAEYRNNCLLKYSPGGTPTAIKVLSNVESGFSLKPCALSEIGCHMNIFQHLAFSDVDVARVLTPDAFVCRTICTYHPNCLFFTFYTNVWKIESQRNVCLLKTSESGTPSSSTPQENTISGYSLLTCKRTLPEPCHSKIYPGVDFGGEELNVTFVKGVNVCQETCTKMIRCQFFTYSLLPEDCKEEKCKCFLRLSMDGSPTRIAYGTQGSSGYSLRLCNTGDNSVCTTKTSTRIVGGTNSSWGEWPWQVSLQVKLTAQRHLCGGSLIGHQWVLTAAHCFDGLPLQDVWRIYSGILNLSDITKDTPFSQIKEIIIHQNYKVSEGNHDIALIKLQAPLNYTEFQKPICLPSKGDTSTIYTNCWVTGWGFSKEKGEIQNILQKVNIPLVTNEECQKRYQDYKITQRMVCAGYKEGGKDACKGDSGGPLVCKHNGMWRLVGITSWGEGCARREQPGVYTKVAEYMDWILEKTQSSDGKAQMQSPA

What does the source list for human kallikrein 2 (hK2)?
Kcat/Km [1]: 21000 M⁻¹ s⁻¹; Kcat/Km [2]: 25000 M⁻¹ s⁻¹; Kcat/Km [3]: 23000 M⁻¹ s⁻¹; Kcat/Km [4]: 14000 M⁻¹ s⁻¹; Kcat/Km [5]: 16000 M⁻¹ s⁻¹; Kcat/Km [6]: 12000 M⁻¹ s⁻¹; Kcat/Km [7]: 32000 M⁻¹ s⁻¹; Kcat/Km [8]: 21000 M⁻¹ s⁻¹; Kcat/Km [9]: 14000 M⁻¹ s⁻¹

How did the Kcat/Km [7] turn out when human kallikrein hK1 was run?
The Kcat/Km was “L.C”.

Which results are given for human plasma kallikrein (PK)?
Kcat/Km [2]: 5000 M⁻¹ s⁻¹; Kcat/Km [4]: 5000 M⁻¹ s⁻¹

For prostate specific antigen (PSA, hK3), which Kcat/Km [10] is on record?
The Kcat/Km was “L.C”.

What does the source list for trypsin?
Kcat/Km [1]: 2.11e+06 M⁻¹ s⁻¹; Kcat/Km [2]: 2.27e+06 M⁻¹ s⁻¹; Kcat/Km [11]: 319000 M⁻¹ s⁻¹; Kcat/Km [3]: 260000 M⁻¹ s⁻¹; Kcat/Km [4]: 2.07e+06 M⁻¹ s⁻¹; Kcat/Km [5]: 246000 M⁻¹ s⁻¹; Kcat/Km [6]: 384000 M⁻¹ s⁻¹; Kcat/Km [12]: 129000 M⁻¹ s⁻¹; Kcat/Km [7]: 1.42e+06 M⁻¹ s⁻¹; Kcat/Km [8]: 270000 M⁻¹ s⁻¹; Kcat/Km [9]: 4.68e+06 M⁻¹ s⁻¹
